# Source: patent CN111434683A
# Several values for one entry are separate records, joined by “and”; a condition that tells them apart may be missing. Equal values may be shown once.
# B1: 抗H7N9全人源单克隆抗体8D11 (antibody, V domains shown)
# VH: QVQLVESGAEVKKPGASVKVSCKASGYIFFTSYDINWVRQATGQGLEWMGWMNPDSGDTGFAQKFQGRVTMTRNTSITTAYMELSSLTSEDTAVYYCATGNADCSGGSCYNWFDPWGQGTLVTVSS
# VL: SSELTQDPAVSVALGQTVRITCQGDRLRSYTYASWYQQKPGQAPVLVIYGKNNRPSGIPDRFSGSSSGNTASLTITGAQAEDEADYYCNSRTSGYHLVFGGGTKLTVLV
# How the values were obtained:
# [1] = target: H7N9病毒的HA蛋白(购自ACROBiosystems) (H7N9 influenza virus); test: ELISA, negative control on coated HA
# [2] = target: H7N9病毒的HA蛋白(购自ACROBiosystems) (H7N9 influenza virus)
# [3] = target: H7N9病毒 A/Anhui/1/2013 (H7N9 influenza virus A/Anhui/1/2013); test: cell-based or functional assay
# [4] = target: H7N9病毒的HA蛋白(购自ACROBiosystems) (H7N9 influenza virus); test: ELISA, supernatant of transfected 293F cells on coated HA
Molecule,450nm [1],Kd [2] [nM],"IC50 (微量中和-ELISA, MDCK细胞) [3] [mg/L]",450nm [4]
阴性对照,0.0675 OD450 and 0.0554 OD450,–,–,–
B1,–,8.3,0.89,0.956 OD450 and 0.981 OD450 and 0.742 OD450
